# Assay results taken from US20210246166A1 (Bayer, published 2021).
# Bridge positions count the residues as written; N and C are the ends. Square brackets hold non-standard residues; d marks the D form. Ends that are not written are not given here. Oic = O=C(O)[C@@H]1C[C@@H]2CCCC[C@@H]2N1; NMeI = CC[C@H](C)[C@H](NC)C(=O)O; tBuAla = CC(C)(C)C[C@H](N)C(=O)O; Pen = CC(C)(S)[C@H](N)C(=O)O; Aib = CC(C)(N)C(=O)O; Sar = CNCC(=O)O
# T1: recombinant human MASP1 active protease (amino acids 297-699, C-terminal His Tag) (human, UniProt P48740 297-699)
# T1 sequence: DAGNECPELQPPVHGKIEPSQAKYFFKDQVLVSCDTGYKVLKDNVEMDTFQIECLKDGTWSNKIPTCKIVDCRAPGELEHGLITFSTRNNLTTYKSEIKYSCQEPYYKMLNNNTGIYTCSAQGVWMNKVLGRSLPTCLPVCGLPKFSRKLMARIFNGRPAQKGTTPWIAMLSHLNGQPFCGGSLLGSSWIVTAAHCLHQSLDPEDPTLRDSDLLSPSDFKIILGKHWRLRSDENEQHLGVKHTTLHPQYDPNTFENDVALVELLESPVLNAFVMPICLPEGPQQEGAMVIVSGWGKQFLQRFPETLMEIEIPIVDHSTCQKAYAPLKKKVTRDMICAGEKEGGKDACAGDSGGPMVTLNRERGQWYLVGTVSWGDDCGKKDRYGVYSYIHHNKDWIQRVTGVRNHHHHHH
# B1: Example 372: IC+SRSLP-(Oic)-I-(Pen)+IPE-NH2 (peptide)
# peptide: ICSRSLP[Oic]I[Pen]IPE-NH2
# modifications: disulfide 2-10; N-terminus assumed
# SMILES: CC[C@H](C)[C@H](N)C(=O)N[C@H]1CSSC(C)(C)[C@@H](C(=O)N[C@H](C(=O)N2CCC[C@H]2C(=O)N[C@@H](CCC(=O)O)C(N)=O)[C@@H](C)CC)NC(=O)[C@H]([C@@H](C)CC)NC(=O)[C@@H]2C[C@@H]3CCCC[C@@H]3N2C(=O)[C@@H]2CCCN2C(=O)[C@H](CC(C)C)NC(=O)[C@H](CO)NC(=O)[C@H](CCCNC(=N)N)NC(=O)[C@H](CO)NC1=O
# B2: Example 378: PPIC+SRS-((tBu)A)-PPI-(Pen)+IP-NH2 (peptide)
# peptide: PPICSRS[tBuAla]PPI[Pen]IP-NH2
# modifications: disulfide 4-12; N-terminus assumed
# SMILES: CC[C@H](C)[C@H](NC(=O)[C@@H]1CCCN1C(=O)[C@@H]1CCCN1)C(=O)N[C@H]1CSSC(C)(C)[C@@H](C(=O)N[C@H](C(=O)N2CCC[C@H]2C(N)=O)[C@@H](C)CC)NC(=O)[C@H]([C@@H](C)CC)NC(=O)[C@@H]2CCCN2C(=O)[C@@H]2CCCN2C(=O)[C@H](CC(C)(C)C)NC(=O)[C@H](CO)NC(=O)[C@H](CCCNC(=N)N)NC(=O)[C@H](CO)NC1=O
# B3: Example 368: IC+SRSLP-(Oic)-I-(Pen)+I-OH (peptide)
# peptide: ICSRSLP[Oic]I[Pen]I-OH
# modifications: disulfide 2-10; N-terminus assumed
# SMILES: CC[C@H](C)[C@H](N)C(=O)N[C@H]1CSSC(C)(C)[C@@H](C(=O)N[C@H](C(=O)O)[C@@H](C)CC)NC(=O)[C@H]([C@@H](C)CC)NC(=O)[C@@H]2C[C@@H]3CCCC[C@@H]3N2C(=O)[C@@H]2CCCN2C(=O)[C@H](CC(C)C)NC(=O)[C@H](CO)NC(=O)[C@H](CCCNC(=N)N)NC(=O)[C@H](CO)NC1=O
# B4: Example 379: ((N-Me)I)-C+SRS-((tBu)A)-PPI-(Pen)+IP-NH2 (peptide)
# peptide: [NMeI]CSRS[tBuAla]PPI[Pen]IP-NH2
# modifications: disulfide 2-10; N-terminus assumed
# SMILES: CC[C@H](C)[C@H](NC)C(=O)N[C@H]1CSSC(C)(C)[C@@H](C(=O)N[C@H](C(=O)N2CCC[C@H]2C(N)=O)[C@@H](C)CC)NC(=O)[C@H]([C@@H](C)CC)NC(=O)[C@@H]2CCCN2C(=O)[C@@H]2CCCN2C(=O)[C@H](CC(C)(C)C)NC(=O)[C@H](CO)NC(=O)[C@H](CCCNC(=N)N)NC(=O)[C@H](CO)NC1=O
# B5: Example 371: PPIC+SRS-((tBu)A)-PPI-(Pen)+I-NH2 (peptide)
# peptide: PPICSRS[tBuAla]PPI[Pen]I-NH2
# modifications: disulfide 4-12; N-terminus assumed
# SMILES: CC[C@H](C)[C@H](NC(=O)[C@H]1NC(=O)[C@H]([C@@H](C)CC)NC(=O)[C@@H]2CCCN2C(=O)[C@@H]2CCCN2C(=O)[C@H](CC(C)(C)C)NC(=O)[C@H](CO)NC(=O)[C@H](CCCNC(=N)N)NC(=O)[C@H](CO)NC(=O)[C@@H](NC(=O)[C@@H](NC(=O)[C@@H]2CCCN2C(=O)[C@@H]2CCCN2)[C@@H](C)CC)CSSC1(C)C)C(N)=O
# B6: Example 369: IC+SRSLP-(Oic)-I-(Pen)+IPE-OH (peptide)
# peptide: ICSRSLP[Oic]I[Pen]IPE-OH
# modifications: disulfide 2-10; N-terminus assumed
# SMILES: CC[C@H](C)[C@H](N)C(=O)N[C@H]1CSSC(C)(C)[C@@H](C(=O)N[C@H](C(=O)N2CCC[C@H]2C(=O)N[C@@H](CCC(=O)O)C(=O)O)[C@@H](C)CC)NC(=O)[C@H]([C@@H](C)CC)NC(=O)[C@@H]2C[C@@H]3CCCC[C@@H]3N2C(=O)[C@@H]2CCCN2C(=O)[C@H](CC(C)C)NC(=O)[C@H](CO)NC(=O)[C@H](CCCNC(=N)N)NC(=O)[C@H](CO)NC1=O
# B7: Example 377: IC+SRSLP-(Oic)-I-(Pen)+IPQ-NH2 (peptide)
# peptide: ICSRSLP[Oic]I[Pen]IPQ-NH2
# modifications: disulfide 2-10; N-terminus assumed
# SMILES: CC[C@H](C)[C@H](N)C(=O)N[C@H]1CSSC(C)(C)[C@@H](C(=O)N[C@H](C(=O)N2CCC[C@H]2C(=O)N[C@@H](CCC(N)=O)C(N)=O)[C@@H](C)CC)NC(=O)[C@H]([C@@H](C)CC)NC(=O)[C@@H]2C[C@@H]3CCCC[C@@H]3N2C(=O)[C@@H]2CCCN2C(=O)[C@H](CC(C)C)NC(=O)[C@H](CO)NC(=O)[C@H](CCCNC(=N)N)NC(=O)[C@H](CO)NC1=O
# B8: Example 367: ((N-Me)G)-IC+SRSLPPIC+I-(Oic)-D-OH (peptide)
# peptide: [Sar]ICSRSLPPICI[Oic]D-OH
# modifications: disulfide 3-11; N-terminus assumed
# SMILES: CC[C@H](C)[C@H](NC(=O)CNC)C(=O)N[C@H]1CSSC[C@@H](C(=O)N[C@H](C(=O)N2[C@H](C(=O)N[C@@H](CC(=O)O)C(=O)O)C[C@@H]3CCCC[C@@H]32)[C@@H](C)CC)NC(=O)[C@H]([C@@H](C)CC)NC(=O)[C@@H]2CCCN2C(=O)[C@@H]2CCCN2C(=O)[C@H](CC(C)C)NC(=O)[C@H](CO)NC(=O)[C@H](CCCNC(=N)N)NC(=O)[C@H](CO)NC1=O
# B9: Example 370: fIC+SRSLP-(Oic)-I-(Pen)+IP-NH2 (peptide)
# peptide: [dF]ICSRSLP[Oic]I[Pen]IP-NH2
# modifications: disulfide 3-11; N-terminus assumed
# SMILES: CC[C@H](C)[C@H](NC(=O)[C@H](N)Cc1ccccc1)C(=O)N[C@H]1CSSC(C)(C)[C@@H](C(=O)N[C@H](C(=O)N2CCC[C@H]2C(N)=O)[C@@H](C)CC)NC(=O)[C@H]([C@@H](C)CC)NC(=O)[C@@H]2C[C@@H]3CCCC[C@@H]3N2C(=O)[C@@H]2CCCN2C(=O)[C@H](CC(C)C)NC(=O)[C@H](CO)NC(=O)[C@H](CCCNC(=N)N)NC(=O)[C@H](CO)NC1=O
# B10: Example 373: (Aib)-IC+SRSLPPIC+IPD-NH2 (peptide)
# peptide: [Aib]ICSRSLPPICIPD-NH2
# modifications: disulfide 3-11; N-terminus assumed
# SMILES: CC[C@H](C)[C@@H]1NC(=O)[C@@H]2CCCN2C(=O)[C@@H]2CCCN2C(=O)[C@H](CC(C)C)NC(=O)[C@H](CO)NC(=O)[C@H](CCCNC(=N)N)NC(=O)[C@H](CO)NC(=O)[C@@H](NC(=O)[C@@H](NC(=O)C(C)(C)N)[C@@H](C)CC)CSSC[C@@H](C(=O)N[C@H](C(=O)N2CCC[C@H]2C(=O)N[C@@H](CC(=O)O)C(N)=O)[C@@H](C)CC)NC1=O
# Biological target: T1, recombinant human MASP1 active protease …
# Assay: cell-based or functional assay
row,human MASP1 IC50 [nM],Binder
1,36,B1
2,38,B2
3,35,B3
4,39,B4
5,36,B5
6,35,B6
7,1.1,[Sar]ICSRSLP[Oic]I[Pen]IP-NH2 (disulfide 3-11; also: citrate salt) [Example 376: ((N-Me)G)-IC+SRSLP-(Oic)-I-(Pen)+IP-NH2 (Citrate)]
8,37,B7
9,35,B8
10,37,AICSRSLPPIC[2‑Methyl‑D‑alloisoleucine]PD-NH2 (disulfide 3-11) [Example 374: AIC+SRSLPPIC+(2-Methyl-D-alloisoleucine)-PD-NH2]
11,35,B9
12,37,B10

# Biological target: recombinant human MASP2 active protease (amino acids 297-686, C-terminal His Tag) (human, UniProt O00187 297-686)
# Sequence (O00187 other isoform, or with tags, fused parts or gaps limits assumed): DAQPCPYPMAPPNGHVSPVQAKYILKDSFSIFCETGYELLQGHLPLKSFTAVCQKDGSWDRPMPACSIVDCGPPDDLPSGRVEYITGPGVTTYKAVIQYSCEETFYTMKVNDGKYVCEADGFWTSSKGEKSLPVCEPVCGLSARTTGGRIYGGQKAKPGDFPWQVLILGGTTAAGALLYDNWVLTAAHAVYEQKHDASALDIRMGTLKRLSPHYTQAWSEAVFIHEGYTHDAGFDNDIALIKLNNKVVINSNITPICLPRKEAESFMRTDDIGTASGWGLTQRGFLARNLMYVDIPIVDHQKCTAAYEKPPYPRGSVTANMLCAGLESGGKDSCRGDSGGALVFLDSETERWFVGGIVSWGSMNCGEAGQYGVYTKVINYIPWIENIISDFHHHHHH
# Assay: cell-based or functional assay
row,human MASP2 IC50 [nM],Binder
1,660,B1
2,1100,B2
3,1200,B3
4,360,B4
5,810,B5
6,420,B6
7,35,[Sar]ICSRSLP[Oic]I[Pen]IP-NH2 (disulfide 3-11; also: citrate salt) [Example 376: ((N-Me)G)-IC+SRSLP-(Oic)-I-(Pen)+IP-NH2 (Citrate)]
8,810,B7
9,600,B8
10,14000,AICSRSLPPIC[2‑Methyl‑D‑alloisoleucine]PD-NH2 (disulfide 3-11) [Example 374: AIC+SRSLPPIC+(2-Methyl-D-alloisoleucine)-PD-NH2]
11,93.5,B9
12,450,B10
